From publication PMC10353892

Molecular target: barrier-to-autointegration factor (BAF) (UniProt Q9VLU0)
Assay: GFP affinity purification, mass spectrometry
Settings: reference: GFP-Ote wild type; sites S50,S54

- binding against the reference: stronger
Substance: otefin (Ote; emerin) (from UniProt P20240) GFP-OteAA (S50A S54A)
